Molecular target: T1, α1-proteinase inhibitor (human, UniProt P01009 25-418)
T1 construct: also called α1-PI; α1PI
Test: ELISA of HNE-α1-PI complexes in human plasma

T1 sequence (P01009 25-418 limits assumed): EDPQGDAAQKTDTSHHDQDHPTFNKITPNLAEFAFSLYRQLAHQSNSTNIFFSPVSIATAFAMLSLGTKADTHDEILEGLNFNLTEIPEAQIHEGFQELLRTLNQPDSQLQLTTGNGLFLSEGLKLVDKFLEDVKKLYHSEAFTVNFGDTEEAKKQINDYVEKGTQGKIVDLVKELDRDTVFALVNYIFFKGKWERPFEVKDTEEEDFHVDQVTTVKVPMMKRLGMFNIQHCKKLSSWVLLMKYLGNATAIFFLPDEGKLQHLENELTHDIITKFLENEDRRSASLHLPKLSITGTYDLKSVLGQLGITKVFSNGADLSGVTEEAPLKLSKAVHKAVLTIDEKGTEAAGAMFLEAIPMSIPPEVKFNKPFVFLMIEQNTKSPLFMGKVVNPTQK

binding result: binds
B1: Human neutrophil elastase (enzyme, UniProt P08246 30-247, looked up)
chain: IVGGRRARPHAWPFMVSLQLRGGHFCGATLIAPNFVMSAAHCVANVNVRAVRVVLGAHNLSRREPTRQVFAVQRIFENGYDPVNLLNDIVILQLNGSATINANVQVAQLPAQGRRLGNGVQCLAMGWGLLGRNRGIASVLQELNVTVVTSLCRRSNVCTLVRGRQAGVCFGDSGSPLVCNGLIHGIASFVRGGCASGLYPDAFAPVAQFVNWIDSIIQ
notes: Tested free (purified, in supernatants or in plasma) and as an HNE-DNA complex on NETs; also called HNE; leukocyte elastase

Reference: patent US20240288446A1 (H PITAUX UNIVERSITAIRES DE STRASBOURG, published 2024)
